Reference: PMC10004744, “H-rGO-Pd NPs Nanozyme Enhanced Silver Deposition Strategy for Electrochemical Detection of Glypican-3”

Biological target: Glypican-3 (GPC3) (UniProt P51654 25-554)
Assay: electrochemical sandwich aptasensor (DPV silver stripping; EIS); GPC3 captured by GPC3 antibody on Au NPs@rGO/SPE; aptamer on H-rGO-Pd NPs; response 0.01-100 ug/mL, LOD 3.30 ng/mL (not a Kd); PBS 0.1 mol/L as electrolyte; probe in Tris-EDTA buffer; 5.0 umol/L GPC3Apt; response time 30 min; incubation temperature tested 4-37 C; pH not given in material
Conditions: protein: commercial; label: adsorbed on H-rGO-Pd NPs nanozyme (signal probe)

Glypican-3 (GPC3), sequence (P51654 25-554): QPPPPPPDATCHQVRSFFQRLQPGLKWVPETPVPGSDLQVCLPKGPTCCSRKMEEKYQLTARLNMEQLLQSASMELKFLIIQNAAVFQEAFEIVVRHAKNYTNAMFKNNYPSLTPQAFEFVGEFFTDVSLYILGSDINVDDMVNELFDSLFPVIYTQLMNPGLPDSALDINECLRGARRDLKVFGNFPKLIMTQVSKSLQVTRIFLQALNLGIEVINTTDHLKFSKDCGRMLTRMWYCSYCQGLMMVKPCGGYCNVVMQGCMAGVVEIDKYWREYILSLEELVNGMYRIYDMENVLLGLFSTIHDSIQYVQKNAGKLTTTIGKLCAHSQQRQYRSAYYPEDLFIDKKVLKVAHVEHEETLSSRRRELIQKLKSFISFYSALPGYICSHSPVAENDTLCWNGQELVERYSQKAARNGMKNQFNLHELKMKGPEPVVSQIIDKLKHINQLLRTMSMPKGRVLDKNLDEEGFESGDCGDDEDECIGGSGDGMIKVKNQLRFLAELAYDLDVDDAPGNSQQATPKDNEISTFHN

**Q.** Does TAACGCTGACCTTAGCTGGATTTTACATGTTCCA (ssDNA, 5'-NH2) [GPC3Apt] bind?
**A.** binds
